Holding throughout (assay): BLI, IgG
For assay [1], the target named is RSV prefusion F (preF), subtype A (respiratory syncytial virus, subtype A, UniProt P03420 26-513).
The target of assay [2] is T1, RSV postfusion F (postF), subtype A (respiratory syncytial virus, subtype A, UniProt P03420 26-513).
T1 construct: also called F ΔFP; Postfusion subtype A

Assay [3] deals with RSV prefusion F (preF), subtype B (respiratory syncytial virus, subtype B).

B1: ADI-14572 (antibody, V domains shown)
VH: QVQLVQSGGGLVKPGGSLRLSCAASGFTFSNAWISWVRQAPGKGLEWVGRIKSATDGGTTDYAAPVKGRFTISRDDSKNTLYLQMDSLKTEDTAVYYCTTSYPYFDWLPFSVDYWGQGTLVTVSS
VL: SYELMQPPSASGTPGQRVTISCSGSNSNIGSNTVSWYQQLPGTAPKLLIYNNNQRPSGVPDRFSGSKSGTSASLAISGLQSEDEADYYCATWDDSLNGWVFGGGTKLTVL
For the molecule B1, the binding result in assay [1] is recorded as “no binding”. Moreover, the Kd in assay [2] is 17 nM.

B2: ADI-14576 (antibody, V domains shown)
VH: QVQLVQSGAEVKKPGASVKVSCKASGYTFTSYGISWVRQAPGQGLEWMGWISAYNGNTNYAQKLQGRVTMTTDTSTSTAYMELRSLRSDDTAVYYCARDPPVIAAGDFQHWGQGTLVTVSS
VL: DIVLTQSPLSLPVTLGQPASISCRSSQSLVHSDGNTYLNWFQQRPGQSPRRLIYKVSNRDSGVPDRFSGSGSGTDFTLKISRVEAEDVGVYYCMQGTHWPPDFGQGTRLEIK
For B2, the Kd in assay [1] is 6.97 nM; in assay [3], 19.3 nM. Also, in assay [2], the binding result was “no binding”.

B3: ADI-21006 (antibody, V domains shown)
VH: QVTLKESGPTLVKPTQTLTLTCTFSGFSLSISGVGVGWIRQPPGKALEWLAVMYWDDDKRYSPSLKTRLTITKDTSKNQVVLTMTNMAPVDTAIYYCAHLWFGEAAFDPWGQGTLVTVSS
VL: EIVLTQSPLSLPVTLRQTASISCRSGQSLLYSDGNTYLNWFQQRPGQSPRRLISIVSKRDSGVPDRFSGSGSGTDFTLKISRVEAEDVGVYYCMQGTHWPYTFGQGTKVEIK
Consider B3, for which binding in assay [1] was characterised by a dissociation constant (Kd) of 10.4 nM. Further, the binding result in assay [2] is given as “no binding”.

B4: ADI-14420 (antibody, V domains shown)
VH: EVQLVESGGVVVQPGGSLRLSCAASGFNFDDYAMHWVRQAPGKGLEWVSLISWDGGNTYYSDSVKGRFTISRDNGKNSLYLQMNSLRAEDTALYYCAKDIDRYSGYDYVFHYWGQGTLVTVSS
VL: DIRLTQSPSTLSAYVGDRVTITCRASQSISSWLAWYQQKPGKAPKLLIYKASSLESGVPSRFTGSGSGTEFTLTISGLQPDDFATYYCQQYNSYSTFGGGTKVDIK
notes: also called Ab 86
B4: the values for the Kd in assay [1] and in assay [3] were 6.35 nM and 4.32 nM, respectively. Further, the binding result in assay [2] is reported as “no binding”.

B5: ADI-14414 (antibody, V domains shown)
VH: QVQLVQSGAEVKKPGSSMKVSCKASGGSFSSYGISWLRQAPGQAPEWMGGIIPIFGTINYAQKFQGRITISADESTSTVYMELSSLRIEDTAVYYCARDGRTSPRYYGWDVWGQGTTVTVSS
VL: DIRLTQSPATLSLSPGDRATLSCRASQSLYTYLSWYQQKPGQAPRLLIYDASNRATGIPARFSGSGSGTDFTLTISSLEPEDFAVYYCHYRSNWPPCTFGGGTKVDIK
notes: also called Ab 80
Consider B5, for which the results for the Kd in assay [1] and in assay [3] were 5 nM and 3.07 nM, respectively. The binding result in assay [2] is recorded as “no binding”.

B6: ADI-14407 (antibody, V domains shown)
VH: QVQLVQSGGGVVQPGRSLRLSCAASGFTFSSYGMHWVRQAPGKGLEWVAVIWFDGNNKEYADSVKGRFAISRDNSKNTLYLQMNSLRAEDTAVYYCARDLIPVTIFGVVNPYSYYGMDVWGQGTTVTVSS
VL: EIVMTQSPSSLSASVGDRVTITCRASQSISTYLNWYQQKPGTAPKLLIYAASSLESGVPSRLSGSGSGTEFILTISSLQREDFATYYCQQSYSTPPTFGQGTKVEIK
notes: also called Ab 73
Consider B6, for which the results for the Kd in assay [1], in assay [2] and in assay [3] were 6.28 nM, 0.378 nM and 11.4 nM, respectively.

B7: ADI-14413 (antibody, V domains shown)
VH: EVQLVESGGVVVQPGGSLRLSCAASGFNFDDYSMHWVRQAPGKGLEWVSVISWDGGITYYADSVKGRFTMSRDNGKKSLYLQMNSLRTEDTAVYYCGKDGDIYSSSSAGIDYWGQGTLVTVSS
VL: SYVLTQPPSASGTPGQRVIISCSGSSSNIGSHTVKWYQQLPGTAPKLLIDRNNQRPSGVPDRFSGPKSGTSASLAISGLQSEDEADYYCASWDDSLNGPVFGGGTQLTVL
notes: also called Ab 79
As for B7, the Kd in assay [1] came out at 5.45 nM; in assay [3], 2.71 nM. The binding result in assay [2] is “no binding”.

B8: ADI-14401 (antibody, V domains shown)
VH: QVQLVQSGGGLVKPGGSLRLSCAASGFTFSSYSMHWVRQAPGKGLEWVSSISASSSYLNYADSVKGRFTISRDNAKKSLYLQLNTLRADDTAVYYCAREDHDSGTYYLNWFDPWGQGTLVTVSS
VL: QSVVTQPPSVSGAPGQRVTISCTGSSSNIGAGYDVHWYQQFPGTGPKLLIYGNSHRPSGVPDRFSGSKSGPSASLAITGLQAEDEADYYCQSYDSSLSGYVFGTGTKVTVL
notes: also called Ab 67
B8: the Kd in assay [1] is 1.19 nM; in assay [3], 2.17 nM. For the same molecule, the binding result in assay [2] is “no binding”.

B9: ADI-21041 (antibody, V domains shown)
VH: EVQLVESGGVVVQPGGSLRLSCAASGFTFDDYTMHWVRQAPGKGLEWVSLISWVGDTTYYADSVKGRFTISRDNSKNSLYLQMNSLRTEDTALYYCAKGGYYDGSGYYYFDYWGQGTLVTVSS
VL: DIRLTQSPSSLSASVGDRVTITCRASQSISNYLNWYQQKPGKAPKLLMYAASSLQSGVPSRFSGSGSGTDFTLTISSLQPEDFATYSCQQSYSTPYTFGQGTKVEIK
As for B9, the Kd in assay [1] amounted to 7.3 nM. In assay [2], the binding result is reported as “no binding”.

B10: ADI-14410 (antibody, V domains shown)
VH: QVQLQQWGAGLLKPSETLSLTCAIYSGSFSGYYWSWIRQPPGKGLEWIGQINYSGSAYYTPSLKSRVTISVDTSKNQFSLKLSSVTAADTAVYYCARVRITMVQGAIVPCAIDVWGQGTTVTVSS
VL: SYELTQPPSASGTPGQRVTISCSGSSSNIESNFVYWYQQLPGTAPKLLIHRNDQRPSGVPDRFSGSKSGTSASLAISGLRSEDEADYSCAAWDDSLSGVVFGGGTKVTVL
notes: also called Ab 76
In the case of B10, the Kd in assay [1] was determined as 3.77 nM; in assay [3], 17.1 nM. The binding result in assay [2] is recorded as “no binding”.

B11: ADI-14399 (antibody, V domains shown)
VH: EVQLLESGPGLVKPSQTLSLTCAVSGGSINSGRYSWSWIRQPPGKGLEWIGYIYYSGTTYYNPSLESRVTISRDTSKNQFSLNLSSVTAADTAVYYCARTNSADSYASGSHYIRPQYFDFWGQGTLVTVSS
VL: DIQLTQSPATLSLSPGERATLSCRASQSVSSYLAWYQQKPGQAPRLLIYGASNRATGIPARFSGSGSGTDFTLTISRLEPEDFAVYYCQQRSNWLTFGGGTKVEIK
notes: also called Ab 65
In the case of B11, the dissociation constant Kd in assay [1] came to 0.189 nM; in assay [3], 0.365 nM. For the same molecule, the binding result in assay [2] was “no binding”.

B12: ADI-14415 (antibody, V domains shown)
VH: EVQLVESGPGLVKPSETLSLTCTVSGGSISNYYWTWIRQPPGEGLEWIGYIYYTGSTNYNPSLKNRVTISVDTPKNQFSLKLNSVTAADTAVYYCARGWGYSYGYESYYNGLDVWGQGTTVTVSS
VL: DIQLTQSPSFLSASVGDRVTITCRASQGISSYLAWYQLKPGKAPKLLIYAAATLETGVPSRFSGSGSGTEFTLTISGLQPEDFATYYCQQLNSFPFTFGPGTKVEIK
notes: also called Ab 81
For the molecule B12, the Kd in assay [1] came out at 4.2 nM; in assay [3], 3.51 nM. Further, the binding result in assay [2] is “no binding”.

B13: ADI-21010 (antibody, V domains shown)
VH: EVQLVESGGGVVQPGRSLRLSCAASGFSFSTYGMHWVRQAPGKGLEWVGVIWYDETTKYYADSVKGRFSISRDNSKNMVYVQMNSLRADDTALYYCAREVWGGVFDIWGQGTTVTVSS
VL: DIQMTQSPATLSASVGDRVTITCRASQNIVTWLAWYQQKPGKAPNLLIYKASSLESGVPSRFSGSGSGTEFTLTISSLQPDDFATYYCQHYNSYSGAFGQGTKVDIK
B13 gave a Kd in assay [1] of 3.58 nM. The binding result in assay [2] was “no binding”.

B14: ADI-14411 (antibody, V domains shown)
VH: QVQLVQSGAEVKKPGASVKLSCKASGYTFTRFYIHWVRQAPGQGLEWMGIINPSGGGTSYAQNFQDRVTMTRDTSTSTVYMELSSLRSEDTAVYYCARNGYSTRSLQNNWFDPWGQGTLVTVSS
VL: ETTLTQSPSSLSASVGDRVTITCRASQSIDNYLNWYQQKPGKAPKLLIYEASSLQSGVPSRFSGSGSGTDFTLTISSLQPEDFATYYCQQTYSSLPYTFGQGTKVEIK
notes: also called Ab 77
As to B14, the Kd was 6.12 nM in assay [1] and 3.92 nM in assay [3]. The binding result in assay [2] is on record as “no binding”.

B15: ADI-14400 (antibody, V domains shown)
VH: QVQLVQSGGGVVQPGRSLRLSSAASGFTFSSYAMHWVRQAPGKGLEWVAVISHDGSKYYADSVKGRFTISRDNSKSTLNLQMNSLRPEDTAVYYCARGGDVRLYDDSNGYHYDTYYFDYWGQGTLVTVSS
VL: EIVLTQSPSSLSASVGDRVTITCRASQGIRNDLGWYQQKPGKAPKLLIYAASTLQSGVPSRFSGSGSGTDFTLTISSLQPEDFATYYCLQDYNYPLTFGGGTKVEIK
notes: also called Ab 66
For the molecule B15, the Kd in assay [1] amounted to 0.29 nM; in assay [3], 0.451 nM. For the same molecule, the binding result in assay [2] is given as “no binding”.

B16: ADI-14396 (antibody, V domains shown)
VH: EVQLVESGGGVVQPGRSLRLSCAASGFTFSSYAMHWVRQAPGKGLEWVAVISYDGSNKYYADSVKGRFTISRDNSKNTLYLQMNSLRAEDTAVYYCARELRYFDWEYGGMDVWGQGTTVTVSS
VL: EIVLTQSPSSLSASVGDRVTITCQASQDISNYLNWYQQKPGKAPKLLIYDASNLETGVPSRFSGSGSGTDFTFTISSLQPEDIATYYCQQYDNLPMYTFGQGTKLEIK
notes: also called Ab 63
As for B16, the binding result in assay [1] and in assay [2] was “no binding” throughout. Further, in assay [3], the Kd was determined as 15.5 nM.

B17: ADI-14409 (antibody, V domains shown)
VH: QVQLVQSGGEVKKPGASVKVSCKASGYTFTYYGISWVRQAPGQGLEWMGWISAYNGNTNYEQKFQGRVTMTTDTSTGTAYMELRSLTSDDTAVYYCARDRIVVVTAANYYGLDVWGQGTTVTVSS
VL: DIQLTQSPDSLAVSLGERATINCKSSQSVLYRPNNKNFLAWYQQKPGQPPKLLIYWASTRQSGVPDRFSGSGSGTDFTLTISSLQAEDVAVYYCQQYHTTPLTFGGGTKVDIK
notes: also called Ab 75
In the case of B17, the figures for the Kd in assay [1] and in assay [3] were 0.15 nM and 0.289 nM, respectively. In assay [2], the binding result is recorded as “no binding”.

B18: ADI-20977 (antibody, V domains shown)
VH: EVQLVESGGGLVQPGGSLRLSCAASGFTFTNYAMSWVRQAPGKGLEWVSGISGSGGSTYYADSVKGRFTISRDNSKNTLYLQMNSLRAEDTAVYYCAKDQGYAVVVADATRNLPPRRYGMDVWGQGTTVTVSS
VL: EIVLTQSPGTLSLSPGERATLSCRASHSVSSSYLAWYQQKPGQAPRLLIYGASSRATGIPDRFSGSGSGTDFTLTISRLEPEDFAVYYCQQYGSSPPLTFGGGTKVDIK
notes: also called Ab 230
Turning to B18, the Kd in assay [1] turned out to be 0.151 nM. Besides, in assay [2], the binding result was “no binding”.

B19: ADI-14408 (antibody, V domains shown)
VH: QVQLVQSGPALVKTTQTLTLTCTFSGFSLTTSGMCVSWIRQPPGKALEWLARIDWDDDKYYSTSLKTRLTISKDTSKNQVVLTLTNVDPVDTATYYCARMQKYDSSGYYLHYFDSWGQGTLVTVSS
VL: DIRLTQSPSSLSASVGDRVTIACRASQSISSYLNWYQQKPGKSPKVLIYAASILQTGVPSRFSGSGSGTDFTLTISSLQPEDFATYYCQQSYSINQYTFGQGTKVEIK
notes: also called Ab 74
Consider B19, for which the Kd was 8.53 nM in assay [1], 2.14 nM in assay [2] and 12.8 nM in assay [3].

The values above are taken from patent publication US20260258115A1 (MAPP BIOPHARMACEUTICAL, published 2026).
